Article PMC11091212 (2024)

T1: Microfibril-associated glycoprotein 4 (human, UniProt P55083 22-255, intermolecular disulphide bond between C34 of two monomers; N-glycosylated at N87 and N137 (cryo-EM density))
T1 chain: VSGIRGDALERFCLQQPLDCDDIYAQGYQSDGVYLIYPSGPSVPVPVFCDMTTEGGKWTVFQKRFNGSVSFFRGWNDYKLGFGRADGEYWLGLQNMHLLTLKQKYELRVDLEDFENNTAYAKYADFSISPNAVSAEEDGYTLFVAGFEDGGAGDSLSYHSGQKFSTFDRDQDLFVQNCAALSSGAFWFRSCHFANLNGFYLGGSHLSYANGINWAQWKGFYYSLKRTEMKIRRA

B1: N-terminal half of LTBP4L (domain or fragment)
chain: ASPSPSPSQVVEVPGVPSRPASVAVCRCCPGQTSRRSRCIRAFCRVRSCQPKKCAGPQRCLNPVPAVPSPSPSVRKRQVSLNWQPLTLQEARALLKRRRPRGPGGRGLLRRRPPQRAPAGKAPVLCPLICHNGGVCVKPDRCLCPPDFAGKFCQLHSSGARPPAPAVPGLTRSVYTMPLANHRDDEHGVASMVSVHVEHPQEASVVVHQVERVSGPWEEADAEAVARAEAAARAEAAAPYTVLAQSAPREDGYSDASGFGYCFRELRGGECASPLPGLRTQEVCCRGAGLAWGVHDCQLCSERLGNSERVSAPDGPCPTGFERVNGSCEDVDECATGGRCQHGECANTRGGYTCVCPDGFLLDSSRSSCISQHVISEAKGPCFRVLRDGGCSLPILRNITKQICCCSRVGKAWGRGCQLCPPFGSEGFREICPAGPGYHYSASDLRYNTRPLGQEPPRVSLSQPRTLPATSRPSAGFLPTHRLEPRPEPRPDPRPGPELPLPSIPAWTGPEIPESGPSSGMCQRNPQVCGPGRCISRPSGYTCACDSGFRLSPQGTRCIDVDECRRVPPPCAPGRCENSPGSFRCVCGPGFRAGPRAAECLDVDECHRVPPPCDLGRCENTPGSFLCVCPAGYQAAPHGASCQDVDECTQSPGLCGRGACKNLPGSFRCVCPAGFRGSACEEDVDECAQEPPPCGPGRCDNTAGSFHCACPAGFRSRGPGAPCQ
B2: fibulin-4 (natural protein)
chain: SASPQDSEEPDSYTECTDGYEWDPDSQHCRDVNECLTIPEACKGEMKCINHYGGYLCLPRSAAVINDLHGEGPPPPVPPAQHPNPCPPGYEPDDQDSCVDVDECAQALHDCRPSQDCHNLPGSYQCTCPDGYRKIGPECVDIDECRYRYCQHRCVNLPGSFRCQCEPGFQLGPNNRSCVDVNECDMGAPCEQRCFNSYGTFLCRCHQGYELHRDGFSCSDIDECSYSSYLCQYRCINEPGRFSCHCPQGYQLLATRLCQDIDECESGAHQCSEAQTCVNFHGGYRCVDTNRCVEPYIQVSENRCLCPASNPLCREQPSSIVHRYMTITSERSVPADVFQIQATSVYPGAYNAFQIRAGNSQGDFYIRQINNVSAMLVLARPVTGPREYVLDLEMVTMNSLMSYRASSVLRLTVFVGAYTF
B3: fibrillin-1 centre region fragment rF1M (domain or fragment)
chain: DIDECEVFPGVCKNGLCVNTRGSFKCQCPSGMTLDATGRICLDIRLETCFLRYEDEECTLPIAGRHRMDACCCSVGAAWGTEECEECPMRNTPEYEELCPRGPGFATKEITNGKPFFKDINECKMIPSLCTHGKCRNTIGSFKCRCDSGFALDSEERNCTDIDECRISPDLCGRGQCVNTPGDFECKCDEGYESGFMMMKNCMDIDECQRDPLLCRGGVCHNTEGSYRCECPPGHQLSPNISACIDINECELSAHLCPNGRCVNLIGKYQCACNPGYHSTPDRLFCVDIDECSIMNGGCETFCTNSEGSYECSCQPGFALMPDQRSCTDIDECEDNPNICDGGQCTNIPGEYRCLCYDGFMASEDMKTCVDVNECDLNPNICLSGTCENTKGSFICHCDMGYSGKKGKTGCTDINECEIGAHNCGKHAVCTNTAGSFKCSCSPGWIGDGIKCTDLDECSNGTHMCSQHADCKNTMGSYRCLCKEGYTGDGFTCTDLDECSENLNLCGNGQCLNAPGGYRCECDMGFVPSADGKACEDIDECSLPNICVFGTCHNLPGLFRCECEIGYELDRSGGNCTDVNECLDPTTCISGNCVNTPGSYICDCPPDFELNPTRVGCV
modifications: limits not printed (cited paper); approximate centre region, set at calcium-binding EGF domain boundaries from the domain before TB4 to the one before TB5; Ca2+ bound, HEK-type glycosylation and disulphides likely
B4: latent transforming growth factor beta binding protein-4, long isoform (natural protein)
chain: ASPSPSPSQVVEVPGVPSRPASVAVCRCCPGQTSRRSRCIRAFCRVRSCQPKKCAGPQRCLNPVPAVPSPSPSVRKRQVSLNWQPLTLQEARALLKRRRPRGPGGRGLLRRRPPQRAPAGKAPVLCPLICHNGGVCVKPDRCLCPPDFAGKFCQLHSSGARPPAPAVPGLTRSVYTMPLANHRDDEHGVASMVSVHVEHPQEASVVVHQVERVSGPWEEADAEAVARAEAAARAEAAAPYTVLAQSAPREDGYSDASGFGYCFRELRGGECASPLPGLRTQEVCCRGAGLAWGVHDCQLCSERLGNSERVSAPDGPCPTGFERVNGSCEDVDECATGGRCQHGECANTRGGYTCVCPDGFLLDSSRSSCISQHVISEAKGPCFRVLRDGGCSLPILRNITKQICCCSRVGKAWGRGCQLCPPFGSEGFREICPAGPGYHYSASDLRYNTRPLGQEPPRVSLSQPRTLPATSRPSAGFLPTHRLEPRPEPRPDPRPGPELPLPSIPAWTGPEIPESGPSSGMCQRNPQVCGPGRCISRPSGYTCACDSGFRLSPQGTRCIDVDECRRVPPPCAPGRCENSPGSFRCVCGPGFRAGPRAAECLDVDECHRVPPPCDLGRCENTPGSFLCVCPAGYQAAPHGASCQDVDECTQSPGLCGRGACKNLPGSFRCVCPAGFRGSACEEDVDECAQEPPPCGPGRCDNTAGSFHCACPAGFRSRGPGAPCQDVDECARSPPPCTYGRCENTEGSFQCVCPMGFQPNTAGSECEDVDECENHLACPGQECVNSPGSFQCRTCPSGHHLHRGRCTDVDECSSGAPPCGPHGHCTNTEGSFRCSCAPGYRAPSGRPGPCADVNECLEGDFCFPHGECLNTDGSFACTCAPGYRPGPRGASCLDVDECSEEDLCQSGICTNTDGSFECICPPGHRAGPDLASCLDVDECRERGPALCGSQRCENSPGSYRCVRDCDPGYHAGPEGTCDDVDECQEYGPEICGAQRCENTPGSYRCTPACDPGYQPTPGGGCQDVDECRNRSFCGAHAVCQNLPGSFQCLCDQGYEGARDGRHCVDVNECETLQGVCGAALCENVEGSFLCVCPNSPEEFDPMTGRCVPPRTSAGTFPGSQPQAPASPVLPARPPPPPLPRRPSTPRQGPVGSGRRECYFDTAAPDACDNILARNVTWQECCCTVGEGWGSGCRIQQCPGTETAEYQSLCPHGRGYLAPSGDLSLRRDVDECQLFRDQVCKSGVCVNTAPGYSCYCSNGYYYHTQRLECIDNDECADEEPACEGGRCVNTVGSYHCTCEPPLVLDGSQRRCVSNESQSLDDNLGVCWQEVGADLVCSHPRLDRQATYTECCCLYGEAWGMDCALCPAQDSDDFEALCNVLRPPAYSPPRPGGFGLPYEYGPDLGPPYQGLPYGPELYPPPALPYDPYPPPPGPFARREAPYGAPRFDMPDFEDDGGPYGESEAPAPPGPGTRWPYRSRDTRRSFPEPEEPPEGGSYAGSLAEPYEELEAEECGILDGCTNGRCVRVPEGFTCRCFDGYRLDMTRMACVDINECDEAEAASPLCVNARCLNTDGSFRCICRPGFAPTHQPHHCAPARPRA
B5: latent transforming growth factor beta binding protein-4, short isoform (natural protein)
chain: RLGERLRVRFTPVVCGLRCVHGPTGSRCTPTCAPRNATSVDSGAPGGAAPGGPGFRAFLCPLICHNGGVCVKPDRCLCPPDFAGKFCQLHSSGARPPAPAVPGLTRSVYTMPLANHRDDEHGVASMVSVHVEHPQEASVVVHQVERVSGPWEEADAEAVARAEAAARAEAAAPYTVLAQSAPREDGYSDASGFGYCFRELRGGECASPLPGLRTQEVCCRGAGLAWGVHDCQLCSERLGNSERVSAPDGPCPTGFERVNGSCEDVDECATGGRCQHGECANTRGGYTCVCPDGFLLDSSRSSCISQHVISEAKGPCFRVLRDGGCSLPILRNITKQICCCSRVGKAWGRGCQLCPPFGSEGFREICPAGPGYHYSASDLRYNTRPLGQEPPRVSLSQPRTLPATSRPSAGFLPTHRLEPRPEPRPDPRPGPELPLPSIPAWTGPEIPESGPSSGMCQRNPQVCGPGRCISRPSGYTCACDSGFRLSPQGTRCIDVDECRRVPPPCAPGRCENSPGSFRCVCGPGFRAGPRAAECLDVDECHRVPPPCDLGRCENTPGSFLCVCPAGYQAAPHGASCQDVDECTQSPGLCGRGACKNLPGSFRCVCPAGFRGSACEEDVDECAQEPPPCGPGRCDNTAGSFHCACPAGFRSRGPGAPCQDVDECARSPPPCTYGRCENTEGSFQCVCPMGFQPNTAGSECEDVDECENHLACPGQECVNSPGSFQCRTCPSGHHLHRGRCTDVDECSSGAPPCGPHGHCTNTEGSFRCSCAPGYRAPSGRPGPCADVNECLEGDFCFPHGECLNTDGSFACTCAPGYRPGPRGASCLDVDECSEEDLCQSGICTNTDGSFECICPPGHRAGPDLASCLDVDECRERGPALCGSQRCENSPGSYRCVRDCDPGYHAGPEGTCDDVDECQEYGPEICGAQRCENTPGSYRCTPACDPGYQPTPGGGCQDVDECRNRSFCGAHAVCQNLPGSFQCLCDQGYEGARDGRHCVDVNECETLQGVCGAALCENVEGSFLCVCPNSPEEFDPMTGRCVPPRTSAGTFPGSQPQAPASPVLPARPPPPPLPRRPSTPRQGPVGSGRRECYFDTAAPDACDNILARNVTWQECCCTVGEGWGSGCRIQQCPGTETAEYQSLCPHGRGYLAPSGDLSLRRDVDECQLFRDQVCKSGVCVNTAPGYSCYCSNGYYYHTQRLECIDNDECADEEPACEGGRCVNTVGSYHCTCEPPLVLDGSQRRCVSNESQSLDDNLGVCWQEVGADLVCSHPRLDRQATYTECCCLYGEAWGMDCALCPAQDSDDFEALCNVLRPPAYSPPRPGGFGLPYEYGPDLGPPYQGLPYGPELYPPPALPYDPYPPPPGPFARREAPYGAPRFDMPDFEDDGGPYGESEAPAPPGPGTRWPYRSRDTRRSFPEPEEPPEGGSYAGSLAEPYEELEAEECGILDGCTNGRCVRVPEGFTCRCFDGYRLDMTRMACVDINECDEAEAASPLCVNARCLNTDGSFRCICRPGFAPTHQPHHCAPARPRA
B6: recombinant human tropoelastin (natural protein)
chain: GGVPGAIPGGVPGGVFYPGAGLGALGGGALGPGGKPLKPVPGGLAGAGLGAGLGAFPAVTFPGALVPGGVADAAAAYKAAKAGAGLGGVPGVGGLGVSAGAVVPQPGAGVKPGKVPGVGLPGVYPGGVLPGARFPGVGVLPGVPTGAGVKPKAPGVGGAFAGIPGVGPFGGPQPGVPLGYPIKAPKLPGGYGLPYTTGKLPYGYGPGGVAGAAGKAGYPTGTGVGPQAAAAAAAKAAAKFGAGAAGVLPGVGGAGVPGVPGAIPGIGGIAGVGTPAAAAAAAAAAKAAKYGAAAGLVPGGPGFGPGVVGVPGAGVPGVGVPGAGIPVVPGAGIPGAAVPGVVSPEAAAKAAAKAAKYGARPGVGVGGIPTYGVGAGGFPGFGVGVGGIPGVAGVPGVGGVPGVGGVPGVGISPEAQAAAAAKAAKYGAAGAGVLGGLVPGAPGAVPGVPGTGGVPGVGTPAAAAAKAAAKAAQFGLVPGVGVAPGVGVAPGVGVAPGVGLAPGVGVAPGVGVAPGVGVAPGIGPGGVAAAAKSAAKVAAKAQLRAAAGLGAGIPGLGVGVGVPGLGVGAGVPGLGVGAGVPGFGAGADEGVRRSLSPELREGDPSSSQHLPSTPSSPRVPGALAAAKAAKYGAAVPGVLGGLGALGGVGIPGGVVGAGPAAAAAAAKAAAKAAQFGLVGAAGLGGLGVGGLGVPGVGGLGGIPPAAAAKAAKYGAAGLGGVLGGAGQFPLGGVAARPGFGLSPIFPGGACLGKACGRKRK
B7: recombinant N-terminal half of fibrillin-1 (domain or fragment)
chain: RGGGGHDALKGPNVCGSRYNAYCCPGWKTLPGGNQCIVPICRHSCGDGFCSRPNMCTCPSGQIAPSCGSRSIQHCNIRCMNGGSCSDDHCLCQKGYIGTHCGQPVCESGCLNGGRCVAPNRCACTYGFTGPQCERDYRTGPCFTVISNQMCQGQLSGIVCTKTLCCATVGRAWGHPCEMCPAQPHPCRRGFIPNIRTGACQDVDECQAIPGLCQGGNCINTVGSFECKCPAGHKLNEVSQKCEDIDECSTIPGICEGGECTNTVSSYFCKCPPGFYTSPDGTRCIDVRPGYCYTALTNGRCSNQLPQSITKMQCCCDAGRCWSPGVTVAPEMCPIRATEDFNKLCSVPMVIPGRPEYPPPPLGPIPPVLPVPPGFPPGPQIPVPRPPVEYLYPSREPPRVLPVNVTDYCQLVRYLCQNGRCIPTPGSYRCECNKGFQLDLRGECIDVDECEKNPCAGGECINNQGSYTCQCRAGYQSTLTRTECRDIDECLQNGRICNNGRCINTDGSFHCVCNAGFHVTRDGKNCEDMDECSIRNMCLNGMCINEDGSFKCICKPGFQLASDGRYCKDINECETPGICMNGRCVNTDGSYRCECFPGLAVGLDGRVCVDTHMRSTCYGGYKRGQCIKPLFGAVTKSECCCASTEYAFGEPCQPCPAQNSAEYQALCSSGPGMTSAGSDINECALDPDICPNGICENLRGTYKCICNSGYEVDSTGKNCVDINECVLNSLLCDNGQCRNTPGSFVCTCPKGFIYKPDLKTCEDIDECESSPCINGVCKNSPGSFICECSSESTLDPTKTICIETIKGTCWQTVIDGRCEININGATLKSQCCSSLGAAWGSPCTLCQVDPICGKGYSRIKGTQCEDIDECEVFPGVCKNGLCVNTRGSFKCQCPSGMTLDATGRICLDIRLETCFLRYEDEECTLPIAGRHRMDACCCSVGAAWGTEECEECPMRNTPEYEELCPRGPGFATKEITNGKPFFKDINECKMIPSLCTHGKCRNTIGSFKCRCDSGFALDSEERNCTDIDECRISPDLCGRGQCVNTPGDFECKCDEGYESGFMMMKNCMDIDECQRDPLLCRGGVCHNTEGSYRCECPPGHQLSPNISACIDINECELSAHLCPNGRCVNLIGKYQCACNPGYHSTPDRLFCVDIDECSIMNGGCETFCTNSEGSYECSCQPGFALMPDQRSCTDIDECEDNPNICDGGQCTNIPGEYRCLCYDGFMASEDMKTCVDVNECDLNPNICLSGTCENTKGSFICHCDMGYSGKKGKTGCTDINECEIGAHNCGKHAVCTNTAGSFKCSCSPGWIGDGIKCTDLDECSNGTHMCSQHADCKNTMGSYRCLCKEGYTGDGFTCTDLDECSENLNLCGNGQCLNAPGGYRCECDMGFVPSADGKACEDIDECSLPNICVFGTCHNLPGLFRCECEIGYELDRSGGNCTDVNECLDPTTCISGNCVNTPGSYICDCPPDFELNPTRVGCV
B8: fibulin-5 (natural protein)
chain: QAQCTNGFDLDRQSGQCLDIDECRTIPEACRGDMMCVNQNGGYLCIPRTNPVYRGPYSNPYSTPYSGPYPAAAPPLSAPNYPTISRPLICRFGYQMDESNQCVDVDECATDSHQCNPTQICINTEGGYTCSCTDGYWLLEGQCLDIDECRYGYCQQLCANVPGSYSCTCNPGFTLNEDGRSCQDVNECATENPCVQTCVNTYGSFICRCDPGYELEEDGVHCSDMDECSFSEFLCQHECVNQPGTYFCSCPPGYILLDDNRSCQDINECEHRNHTCNLQQTCYNLQGGFKCIDPIRCEEPYLRISDNRCMCPAENPGCRDQPFTILYRDMDVVSGRSVPADIFQMQATTRYPGAYYIFQIKSGNEGREFYMRQTGPISATLVMTRPIKGPREIQLDLEMITVNTVINFRGSSVIRLRIYVSQYPF

Molecular target: T1, Microfibril-associated glycoprotein 4
Test: SPR; Ca2+

| Kd | Binder |
| --- | --- |
| 19 nM | B1 |

Molecular target: MFAP4_(C34S) (human, UniProt P55083 22-255, C34S)
Test: SPR; +Ca2+

| Kd | Binder |
| --- | --- |
| 90 nM | B2 |
| 1 nM | B3 |
| 15 nM | B4 |
| 19 nM | B5 |
| 38 nM | B6 |
| 1.5 nM | B7 |

Molecular target: T1, Microfibril-associated glycoprotein 4
Test: SPR; -Ca2+

| Kd | Binder |
| --- | --- |
| 20 nM | B4 |
| 22 nM | B5 |
| 3400 nM | B8 |
